Source: IntAct's records for PubMed 16415179

B1: Transcriptional repressor p66-alpha (Homo sapiens), Q86YP4 (parent)
chain: MTEEACRTRSQKRALERDPTEDDVESKKIKMERGLLASDLNTDGDMRVTPEPGAGPTQGLLRATEATAMAMGRGEGLVGDGPVDMRTSHSDMKSERRPPSPDVIVLSDNEQPSSPRVNGLTTVALKETSTEALMKSSPEERERMIKQLKEELRLEEAKLVLLKKLRQSQIQKEATAQKPTGSVGSTVTTPPPLVRGTQNIPAGKPSLQTSSARMPGSVIPPPLVRGGQQASSKLGPQASSQVVMPPLVRGAQQIHSIRQHSSTGPPPLLLAPRASVPSVQIQGQRIIQQGLIRVANVPNTSLLVNIPQPTPASLKGTTATSAQANSTPTSVASVVTSAESPASRQAAAKLALRKQLEKTLLEIPPPKPPAPEMNFLPSAANNEFIYLVGLEEVVQNLLETQGRMSAATVLSREPYMCAQCKTDFTCRWREEKSGAIMCENCMTTNQKKALKVEHTSRLKAAFVKALQQEQEIEQRLLQQGTAPAQAKAEPTAAPHPVLKQVIKPRRKLAFRSGEARDWSNGAVLQASSQLSRGSATTPRGVLHTFSPSPKLQNSASATALVSRTGRHSERTVSAGKGSATSNWKKTPLSTGGTLAFVSPSLAVHKSSSAVDRQREYLLDMIPPRSIPQSATWK

Variants of: B1
Details: with mbd2_human MBD2, Q9UBB5
Chain of mbd2_human MBD2, Q9UBB5 (Q9UBB5 whole entry): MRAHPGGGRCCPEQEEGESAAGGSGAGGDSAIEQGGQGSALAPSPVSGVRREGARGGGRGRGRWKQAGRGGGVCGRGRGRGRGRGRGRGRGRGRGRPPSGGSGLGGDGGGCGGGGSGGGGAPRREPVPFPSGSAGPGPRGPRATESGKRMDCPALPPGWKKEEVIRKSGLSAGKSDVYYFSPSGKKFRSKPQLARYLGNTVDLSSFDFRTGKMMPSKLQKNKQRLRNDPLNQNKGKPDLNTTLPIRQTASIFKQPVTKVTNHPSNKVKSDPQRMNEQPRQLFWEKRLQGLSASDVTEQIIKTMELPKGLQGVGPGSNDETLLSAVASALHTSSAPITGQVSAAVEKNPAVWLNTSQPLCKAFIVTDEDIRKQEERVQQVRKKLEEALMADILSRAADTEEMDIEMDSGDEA
With K149R the “effect of a mutation on the interaction” value was “decreasing interaction”.
